Numbering of substitutions follows the chain as printed. Names and notes keep the numbering of the source. Values joined by “and” are separate entries in the source; they are usually repeats but may differ in a detail not shown here. Equal values may be shown once. One block for each binder: values may come before it.
Key:
[1] = target: T1, B7-H4 fusion protein Variant 5: IgC residues 154-259 of SEQ ID NO:1 (human, UniProt Q7Z7D3 154-259); test: ELISA, B7-H4 Fc fusion protein immobilized at 1 µg/ml, mouse antibody titrated, anti-mouse Ig HRP
T1 construct: Human IgG1 Fc fusion protein; also called IgC only; not shown: human IgG1 Fc
T1 sequence: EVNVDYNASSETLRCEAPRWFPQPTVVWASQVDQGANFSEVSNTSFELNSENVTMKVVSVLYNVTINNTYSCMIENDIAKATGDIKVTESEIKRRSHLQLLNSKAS
Description: (§1) 100 μl 1 μg/ml human IgG1 Fc fusion proteins diluted in PBS consisting of different segments of B7-H4 Extracellular domains were immobilized on flat bottom 96 well plates (Costar 9017) overnight at 4° C. […] Plates were washed twice with PBS+0.1% PS-20 and blocked with 200 μl/well PBS 10% FBS at RT for 1 hr. A titration of mouse anti-human B7-H4 antibodies 2H9, 2D1, 2E11, 6H3, 8E11 or H74 diluted in PBS 10% FBS were added to the plates and incubated at RT for 1 hr. Plates were washed three times and 100 μl 1 μg/ml anti-mouse Ig HRP (Sigma) was added to each well and incubated at RT for 1 hr. Plates were washed six times and 100 μl TMB substrate (SurModics) was added to each well for 5-15 mins. 100 μl stop solution (0.1M Sulfuric acid) was added to each well. Plates were read at Absorbance 450 nm by PerkinElmer EnVision 2104 Multilabel Reader.

[2] = target: T2, B7-H4ECD his-tagged protein (Sinobiologics) (human, UniProt Q7Z7D3 25-259); test: ELISA, B7-H4ECD his-tagged protein coated
T2 construct: Bought protein; Result paragraph calls the target human B7-H4; also called B7-H4 extracellular domain; not shown: his tag
T2 sequence: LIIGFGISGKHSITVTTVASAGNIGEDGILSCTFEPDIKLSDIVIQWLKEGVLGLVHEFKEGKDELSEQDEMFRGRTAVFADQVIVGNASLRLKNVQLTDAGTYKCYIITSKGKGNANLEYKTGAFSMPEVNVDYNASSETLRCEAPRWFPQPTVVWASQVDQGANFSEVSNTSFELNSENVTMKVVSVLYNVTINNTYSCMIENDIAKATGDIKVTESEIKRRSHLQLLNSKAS
Description: 100 μl 1 μg/ml B7-H4ECD his-tagged protein (Sinobiologics) diluted in PBS was immobilized on flat bottom 96 well plate (Costar 9017) overnight at 4° C. Plates were washed twice with PBS+0.1% PS-20 and blocked with 200 μl/well PBS 10% FBS at RT for 1 hr. 100 μl chimeric 6H3 and 14 selected 6H3 humanized variants diluted in PBS 10% FBS were added to each well and incubated at RT for 1 hr. Plates were washed three times and 100 μl 1 μg/ml anti-human Ig HRP (Sigma) was added to each well and incubated at RT for 1 hr. Plates were washed six times and 100 μl TMB substrate (SurModics) was added to each well for 5-15 mins 100 μl stop solution (0.1M Sulfuric acid) was added to each well. Plates were read at Absorbance 450 nm by PerkinElmer EnVision 2104 Multilabel Reader.

[3] = target: T3, mouse B7-H4ECD mIgG2a Fc fusion protein (mouse, UniProt Q7TSP5 25-257, limits assumed); test: ELISA, mouse B7-H4ECD mIgG2a Fc fusion coated
T3 construct: also called mouse B7-H4-mIg fusion protein; Mouse B7-H4-mouse-Ig Fusion Protein; not shown: mouse IgG2a Fc
T3 sequence: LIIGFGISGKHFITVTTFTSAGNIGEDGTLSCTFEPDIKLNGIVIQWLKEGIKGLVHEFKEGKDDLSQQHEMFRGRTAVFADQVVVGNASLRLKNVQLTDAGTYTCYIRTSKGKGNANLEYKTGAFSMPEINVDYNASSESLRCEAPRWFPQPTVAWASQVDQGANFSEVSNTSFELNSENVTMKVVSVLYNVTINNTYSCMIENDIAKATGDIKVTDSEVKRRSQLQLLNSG
Description: 100 μg/ml mouse B7-H4ECD mIgG2a Fc fusion protein diluted in PBS was immobilized on flat bottom 96 well plate (Costar 9017) overnight at 4° C. Plates were washed twice with PBS+0.1% PS-20 and blocked with 200 μl/well PBS 10% FBS at RT for 1 hr. 100 μl chimeric 6H3 and 14 selected 6H3 humanized variants diluted in PBS 10% FBS were added to each well and incubated at RT for 1 hr. Plates were washed three times and 100 μl 1 μg/ml anti-human Ig HRP (Sigma) was added to each well and incubated at RT for 1 hr. Plates were washed six times and 100 μl TMB substrate (SurModics) was added to each well for 5-15 mins 100 μl stop solution (0.1M Sulfuric acid) was added to each well. Plates were read at Absorbance 450 nm by PerkinElmer EnVision 2104 Multilabel Reader.

[4] = target: T4, human B7-H4 expressed on cells (human, UniProt Q7Z7D3 25-282); test: flow cytometry on HEK293.hB7-H4 transfectants, one-site specific binding fit
T4 construct: the cell line is named under assay or readout; also called full length human B7-H4 on HEK293 cells; 293T.hB7-H4
T4 sequence: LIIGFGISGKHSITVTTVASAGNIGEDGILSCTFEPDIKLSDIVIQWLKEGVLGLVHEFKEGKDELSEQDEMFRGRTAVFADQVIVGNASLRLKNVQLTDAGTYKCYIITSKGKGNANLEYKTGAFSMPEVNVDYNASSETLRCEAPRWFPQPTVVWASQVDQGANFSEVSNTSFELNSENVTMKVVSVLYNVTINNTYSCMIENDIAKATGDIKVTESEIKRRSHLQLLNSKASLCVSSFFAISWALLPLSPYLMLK
Description: For each staining, 0.2 million HEK293.hB7-H4 transfectants were resuspended in 100 μl flow cytometry buffer (PBS+2% FBS). A serial dilution of chimeric 6H3 and 14 humanized variants of 0, 0.1 ng, 0.3 ng, 1 ng, 3 ng, 10 ng, 30 ng, 100 ng, 300 ng, 1 μg, 3 μg and 10 μg were added to the cells and incubated at 4° C. for 30 min. Cells were then washed twice with 2 ml flow cytometry buffer, and resuspended in 100 μl flow cytometry buffer. 1 μl anti-hIg PE secondary antibody (Biolegend) was added and incubated with the cells for 15 mins Samples were then washed and resuspended in 100 μl flow cytometry buffer. Flow Cytometry data was acquired using BD Canto (BD Biosciences) in plate format and analyzed by FlowJo software. Staining data (MFI) was then input into Prism 5 software to generate binding curve. Curve-fit using one-site specific binding algorithm calculates individual KD for each variant.

B7-H4-Ig fusion protein [5] = target: T5, B7-H4-Ig fusion protein (human); test: competition ELISA on B7-H4-Ig-coated plate, Plate 1; competitor biotinylated mouse 6H3 (5 ng/ml)
T5 construct: also called human B7-H4 Ig
Description: (§2) A 12-point, 3-fold dilution series of 14 humanized 6H3 antibody variants was prepared ranging from 100 μg/ml to 0.5 ng/ml. Dilutions were prepared in assay diluent containing biotinylated mouse anti-human B7-H4 6H3 (SEQ ID NOS:3 and 5 for light chain variable region and heavy chain variable region respectively) at 5 ng/ml. Antibodies were allowed to bind to B7-H4-Ig-coated assay plates (200 ng/well) for 1 hour at room temperature and detected with streptavidin HRP.

B7-H4-Ig fusion protein [6] = target: T5, B7-H4-Ig fusion protein; test: competition ELISA on B7-H4-Ig-coated plate, Plate 2; competitor biotinylated mouse 6H3 (5 ng/ml)
Description: as §2

[7] = target: T4, human B7-H4 expressed on cells; test: saturation binding, flow cytometry on 624mel/B7-H4 cells, biotinylated mAb, azide-treated cells; unit not given
Description: A saturation binding experiment was carried out on 624mel/B7-H4 cells using the chimeric 6H3 mAb and humanized variants of 6H3. Briefly, 50,000 cells were pretreated with 0.1% azide on ice for 30 minutes to inhibit B7-H4 internalization then stained for 30 minutes with biotinylated anti-B7-H4 mAbs. The mAbs were diluted in a 12-point, 3-fold dilution series ranging from 200 μg/ml down to 1 ng/ml. Cell were stained with streptavidin PE for 10 minutes, washed, fixed and analyzed by flow cytometry.
FIGS. 35A-35B are binding curves for the raw (FIG. 35A) and background subtracted data (FIG. 35B). […] The subtracted values were used to determine the Kd and Bmax. The antibodies appear to fall into two groups based on Kd values (Table 10).

[8] = target: T6, B7-H4 fusion protein Variant 1: IgV residues 29-149 of SEQ ID NO:1 (human, UniProt Q7Z7D3 29-149); test: ELISA, B7-H4 Fc fusion protein immobilized at 1 µg/ml, mouse antibody titrated, anti-mouse Ig HRP
T6 construct: Human IgG1 Fc fusion protein; also called IgV only; not shown: human IgG1 Fc
T6 chain: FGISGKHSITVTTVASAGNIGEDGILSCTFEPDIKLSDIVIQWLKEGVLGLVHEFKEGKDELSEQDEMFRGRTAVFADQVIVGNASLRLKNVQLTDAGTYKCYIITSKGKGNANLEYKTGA
Description: as §1

[9] = target: T7, B7-H4 fusion protein Variant 2: IgV residues 29-154 of SEQ ID NO:1 (human, UniProt Q7Z7D3 29-154); test: as above
T7 construct: Human IgG1 Fc fusion protein; also called IgV only; not shown: human IgG1 Fc
T7 chain: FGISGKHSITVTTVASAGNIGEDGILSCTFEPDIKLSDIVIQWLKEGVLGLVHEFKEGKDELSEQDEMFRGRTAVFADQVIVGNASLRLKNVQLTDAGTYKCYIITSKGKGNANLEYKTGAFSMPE
Description: as §1

[10] = target: T8, B7-H4 fusion protein Variant 3: IgV residues 29-158 of SEQ ID NO:1 (human, UniProt Q7Z7D3 29-158); test: as above
T8 construct: Human IgG1 Fc fusion protein; also called IgV only; not shown: human IgG1 Fc
T8 chain: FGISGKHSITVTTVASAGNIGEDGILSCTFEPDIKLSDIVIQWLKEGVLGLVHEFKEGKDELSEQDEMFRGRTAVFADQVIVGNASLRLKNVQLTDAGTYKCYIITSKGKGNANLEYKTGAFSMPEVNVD
Description: as §1

B1: anti-human B7-H4 antibody 2D1 (antibody, V domains shown)
VH: EVQLVESGGGLVKPGGSLKLSCAASGFTFNSHGMSWVRQTPEKRLDWVATISDGGTYTYYPVNVKGRFTISRDNAKNNLYLQMSHLKSEDTAMYYCARDGGGGAYWGQGTLVTVSA
VL: DVVMTQTPLSLPVSLGDQASISCRSSHSLVHSNGNTYLHWYLQKPGQSPNLLIYIVSNRFSGVPDRFSGSGSGTDFTLKISRVEAEDLGVYFCSQSTHVPPTFGAGTKLELK
notes: Mouse anti-human B7-H4 antibody; also called clone 2D1
binding result [1]: binds

B4: humanized 6H3 variant 12 (antibody, V domains shown)
VH: EVQLVQSGAEVKKPGASVKVSCKASGYTFTDYYMNWVRQAPGQGLEWIGIINPYNGDTSYNQKFKGRVTLTVDKSTSTAYMELSSLRSEDTAVYYCARYPESTYWGQGTLVTVSS
VL: DIVMTQTPLSLPVTLGQPASISCRSSQSLVHINGNTYLHWYLQRPGQSPKVLIYKVSNRFSGVPDRFSGSGSGTDFTLKISRVEAEDVGVYFCSQSTHVPLTFGAGTKVEIK
notes: also called V12; 6H3 V12
EC50 [2]: 0.78 nM
EC50 [3]: 0.09 nM
Bmax(MFI) [4]: 597 MFI
Kd [4]: 3.2 nM
EC50 (B7-H4-Ig fusion protein [6]): 3 µg/mL and 20 nM
Bmax [7]: 4580

B5: humanized 6H3 variant 13 (antibody, V domains shown)
VH: B4 VH with V11M, G44S, I48M, I50V, S59T, K65Q, L70V, T71A, T76A, S77T
VL: B4 VL
notes: also called V13; H2B L2C
EC50 [2]: 0.92 nM
EC50 [3]: 0.13 nM
Bmax(MFI) [4]: 648 MFI
Kd [4]: 7 nM
EC50 (B7-H4-Ig fusion protein [6]): 2.11 µg/mL and 14.1 nM

B7: anti-human B7-H4 antibody 2H9 (antibody, V domains shown)
VH: EVQLVESGGNLVKPGGSLKLSCAASGFTFSNSAMSWVRQTPEKRLEWVATISDGGRYTYYPDNVKGRFTISRDNAKNNLYLQMSHLKSEDTALYYCARDRPHWYFDVWGTGATVTVSS
VL: DIVLTQSPASLAVSLGQRATISCRASESIDNYGISFMHWYQQKPGQPPKLLIYRASNLESGIPARFSGSGSRTDFTLTINPVETDDVATYFCQQSDEGRTFGGGTKLEIK
notes: Mouse anti-human B7-H4 antibody; also called clone 2H9
binding result [8]: binds
binding result [9]: binds
binding result [10]: binds

Second part, the binder after the results:

EC50 [2]: 0.62 nM
EC50 [3]: 0.09 nM
Bmax(MFI) [4]: 316 MFI
Kd [4]: 5.8 nM
EC50 (B7-H4-Ig fusion protein [5]): 2.44 µg/mL and 16.2 nM
EC50 (B7-H4-Ig fusion protein [6]): 2.26 µg/mL and 15.1 nM
Bmax [7]: 5810
B2: chimeric 6H3 (antibody, V domains shown)
VH: EVQLQQSGPVLVKPGTSVKMSCKASGYTFTDYYMNWVKQSHGKSLEWIGVINPYNGDTTYNQKFKGKATLTVDKSSSTAYMEVNSLTFEDSAVYYCARYPESTYWGQGTLVTVSA
VL: B1 VL with H27Q, S32I, N50K, L51V, I55K, P101L
notes: Mouse variable regions with constant regions from the human IgG1 heavy chain and human kappa light chain; also called human chimeric 6H3; hc6H3

EC50 [2]: 0.75 nM
EC50 [3]: 0.07 nM
Bmax(MFI) [4]: 553 MFI
Kd [4]: 1.8 nM
EC50 (B7-H4-Ig fusion protein [6]): 2.69 µg/mL and 17.9 nM
Bmax [7]: 4610
B3: humanized 6H3 variant 9 (antibody, V domains shown)
VH: B4 VH
VL: B4 VL with L42Q, K50R, A105Q
notes: also called V9; 6H3 V9

EC50 [2]: 0.68 nM
EC50 [3]: 0.11 nM
Bmax(MFI) [4]: 629 MFI
Kd [4]: 5.8 nM
EC50 (B7-H4-Ig fusion protein [6]): 2.49 µg/mL and 16.6 nM
Bmax [7]: 5580
B6: humanized 6H3 variant 14 (antibody, V domains shown)
VH: B4 VH with V11M, G44S, I50V, S59T, K65Q, L70V, T76A, S77T
VL: B4 VL
notes: also called V14; 6H3 V14
